Test results reported in US20130280259A1, “USE OF ANTIBODIES AGAINST NK1, NK2 AND/OR NK3 RECEPTORS IN CANCER TREATMENT” (SERVICIO ANDALUZ DE SALUD, priority 2010, published 2013).
Values belong to the compound of their own block, whether it stands above or below them. Positions of bridges follow the written chain, without caps; N, C: chain ends. Non-standard residues stand in square brackets, D forms with d. Residues, ends and D or L forms follow the SMILES beside them. *: point of attachment. NH(β-GlcNAc) = CC(=O)N[C@@H]1[C@@H](O)[C@H](O)[C@@H](CO)O[C@H]1N*; Dap = NC[C@H](N)C(=O)O

Experiments:
[1] = system: human breast cancer cells; settings: Singh D et al., 2000; Bigioni M. et al., 2005; cited from earlier work
NK3 receptor (human) = NK3 receptor (human) (UniProt P29371); test: cell-based or functional assay
UniProt P29371, sequence (P29371 whole entry): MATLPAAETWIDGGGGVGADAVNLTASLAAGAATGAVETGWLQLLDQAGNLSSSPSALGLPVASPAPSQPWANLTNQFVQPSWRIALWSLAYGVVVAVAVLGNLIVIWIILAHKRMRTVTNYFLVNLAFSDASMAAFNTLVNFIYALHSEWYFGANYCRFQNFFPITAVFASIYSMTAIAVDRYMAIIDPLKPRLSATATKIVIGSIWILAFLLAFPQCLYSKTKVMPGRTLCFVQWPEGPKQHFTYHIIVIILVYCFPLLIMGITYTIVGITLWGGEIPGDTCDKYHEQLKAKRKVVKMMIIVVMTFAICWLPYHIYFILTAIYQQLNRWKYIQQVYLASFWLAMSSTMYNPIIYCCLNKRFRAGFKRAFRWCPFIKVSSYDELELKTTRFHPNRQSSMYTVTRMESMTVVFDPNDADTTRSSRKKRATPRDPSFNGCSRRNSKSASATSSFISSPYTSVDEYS

NK2 receptor (human) = NK2 receptor (human) (UniProt P21452); test: cell-based or functional assay
UniProt P21452, sequence (P21452 whole entry): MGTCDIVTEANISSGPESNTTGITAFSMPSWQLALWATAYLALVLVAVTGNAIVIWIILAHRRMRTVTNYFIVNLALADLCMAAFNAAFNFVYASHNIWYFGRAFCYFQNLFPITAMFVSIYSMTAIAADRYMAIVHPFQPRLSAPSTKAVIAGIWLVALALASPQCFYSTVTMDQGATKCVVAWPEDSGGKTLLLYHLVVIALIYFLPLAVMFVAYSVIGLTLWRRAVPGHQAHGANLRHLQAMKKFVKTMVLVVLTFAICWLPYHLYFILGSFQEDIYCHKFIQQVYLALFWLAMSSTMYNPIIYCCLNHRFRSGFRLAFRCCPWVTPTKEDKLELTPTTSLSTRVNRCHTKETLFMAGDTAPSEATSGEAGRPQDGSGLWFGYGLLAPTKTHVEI

Compound: Cc1ccc(CC(=O)N(C)[C@H](Cc2ccc3ccccc3c2)C(=O)N[C@@H]2CCCC[C@@H]2NC(=O)c2c[nH]c3ccccc23)cc1 [MEN 11467]
- Blocking cell proliferation [1]: efficacy in blocking cell proliferation

- % of fibroblast cells with expression for MMP-3; anti-NK3 (1/100) and Substance P (1 µM) (NK3 receptor (human)): 0%
- % of fibroblast cells with expression for MMP-7; anti-NK3 (1/100) and Substance P (1 µM) (NK3 receptor (human)): 0%
- % of fibroblast cells with expression for MMP-9; anti-NK3 (1/100) and Substance P (1 µM) (NK3 receptor (human)): 0%
- % of fibroblast cells with expression for MMP-11; anti-NK3 (1/100) and Substance P (1 µM) (NK3 receptor (human)): 0%
- % of fibroblast cells with expression for MMP-13; anti-NK3 (1/100) and Substance P (1 µM) (NK3 receptor (human)): 0%
- % of fibroblast cells with expression for MMP-14; anti-NK3 (1/100) and Substance P (1 µM) (NK3 receptor (human)): 0%
- % of fibroblast cells with expression for SPARC; anti-NK3 (1/100) and Substance P (1 µM) (NK3 receptor (human)): 0%
- % of fibroblast cells with expression for TGF-alpha; anti-NK3 (1/100) and Substance P (1 µM) (NK3 receptor (human)): 0%
- % of fibroblast cells with expression for TGF-beta 1; anti-NK3 (1/100) and Substance P (1 µM) (NK3 receptor (human)): 0%
- % of fibroblast cells with expression for TGF-beta 2; anti-NK3 (1/100) and Substance P (1 µM) (NK3 receptor (human)): 0%
- % of fibroblast cells with expression for TGF-beta 3; anti-NK3 (1/100) and Substance P (1 µM) (NK3 receptor (human)): 0%
- % of mononuclear cells with expression for NF-kB; anti-NK3 (1/100) and Substance P (1 µM) (NK3 receptor (human)): 0%
- % of mononuclear cells with expression for TGF-beta; anti-NK3 (1/100) and Substance P (1 µM) (NK3 receptor (human)): 0%
- % of polymorphonuclear cells with expression for NF-kB; anti-NK3 (1/100) (NK3 receptor (human)): 0%
- % of polymorphonuclear cells with expression for TGF-beta; anti-NK3 (1/100) (NK3 receptor (human)): 0%
Compound: anti-NK3 antibody (Sigma-Aldrich, product number HPA009418)

- % of fibroblast cells with expression for MMP-3; anti-NK2 (1/100) and Substance P (1 µM) (NK2 receptor (human)): 0%
- % of fibroblast cells with expression for MMP-7; anti-NK2 (1/100) and Substance P (1 µM) (NK2 receptor (human)): 0%
- % of fibroblast cells with expression for MMP-9; anti-NK2 (1/100) and Substance P (1 µM) (NK2 receptor (human)): 0%
- % of fibroblast cells with expression for MMP-11; anti-NK2 (1/100) and Substance P (1 µM) (NK2 receptor (human)): 0%
- % of fibroblast cells with expression for MMP-13; anti-NK2 (1/100) and Substance P (1 µM) (NK2 receptor (human)): 0%
- % of fibroblast cells with expression for MMP-14; anti-NK2 (1/100) and Substance P (1 µM) (NK2 receptor (human)): 0%
- % of fibroblast cells with expression for SPARC; anti-NK2 (1/100) and Substance P (1 µM) (NK2 receptor (human)): 0%
- % of fibroblast cells with expression for TGF-alpha; anti-NK2 (1/100) and Substance P (1 µM) (NK2 receptor (human)): 0%
- % of fibroblast cells with expression for TGF-beta 1; anti-NK2 (1/100) and Substance P (1 µM) (NK2 receptor (human)): 0%
- % of fibroblast cells with expression for TGF-beta 2; anti-NK2 (1/100) and Substance P (1 µM) (NK2 receptor (human)): 0%
- % of fibroblast cells with expression for TGF-beta 3; anti-NK2 (1/100) and Substance P (1 µM) (NK2 receptor (human)): 0%
- % of mononuclear cells with expression for NF-kB; anti-NK2 (1/100) and Substance P (1 µM) (NK2 receptor (human)): 0%
- % of mononuclear cells with expression for TGF-beta; anti-NK2 (1/100) and Substance P (1 µM) (NK2 receptor (human)): 0%
- % of polymorphonuclear cells with expression for NF-kB; anti-NK2 (1/100) (NK2 receptor (human)): 0%
- % of polymorphonuclear cells with expression for TGF-beta; anti-NK2 (1/100) (NK2 receptor (human)): 0%
Compound: anti-NK2 antibody (Sigma-Aldrich, product number HPA012084)

Compound: CC(=O)N[C@@H]1[C@@H](O)[C@H](O)[C@@H](CO)O[C@H]1NC(=O)C[C@@H]1NC(=O)[C@H](CC(C)C)NC(=O)[C@@H]2CNC(=O)C[C@H](NC1=O)C(=O)N[C@@H](Cc1c[nH]c3ccccc13)C(=O)N[C@@H](Cc1ccccc1)C(=O)N2 [MEN 11420, nepadutant] (cyclo(D(NH(β-GlcNAc))DWF[Dap]L); lactam 2-5)
- Blocking cell proliferation [1]: efficacy in blocking cell proliferation
